Source: publication PMC9184547, “Distinct dissociation rates of murine and human norovirus P-domain dimers suggest a role of dimer stability in virus-host interactions” (Communications Biology, 2022)

How the values were obtained:
[1] = target: GII.4 Saga P-domain (native, non-deamidated) (human norovirus GII.4 Saga); experiment: native MS; 150 mM ammonium acetate pH 7.3, purified GII.4 Saga P-domain, 25 C, also at low protein concentration
[2] = target: GII.4 Saga P-domain deamidated at position 373 (iso-aspartate, iD) (human norovirus GII.4 Saga); experiment: ion-exchange chromatography of exchanging dimers; 373iD/iD and 373Q/Q dimers mixed 1:1, total 1.24 mg/ml, 75 mM sodium phosphate, 100 M NaCl (so in the source), 0.02% NaN3, pH 7.3, 298 K; aliquots over 38 days on analytical cation exchange chromatography; fraction of mixed dimers fitted to an exponential; dimer to monomers
[3] = target: T1, MNV CW1 P-domain (MNV-1 P-dimer) (Murine norovirus 1, UniProt Q80J94); experiment: methyl TROSY NMR titration, TITAN global lineshape analysis; assay type: binding
T1 construct: gene ORF2; MBP-His8 fusion from E. coli BL21(DE3), cleaved with HRV3C; MIL(proS)V(proS)A 13C-methyl labelled for NMR

[4] = target: T1, MNV CW1 P-domain (MNV-1 P-dimer); experiment: differential scanning fluorimetry (SYPRO orange); assay type: binding; settings: pH 5.3, 20 mM sodium acetate, 100 mM NaCl; 3 µM protein; stabilisation rises with ligand concentration
[5] = target: the molecule itself; experiment: SEC-MALS; Superdex 75 10/300 GL, 10-200 uM protein, 20 mM sodium acetate, 100 mM NaCl, pH 5.3
[6] = target: the molecule itself; experiment: native MS; 150 mM ammonium acetate pH 5.3, 2-92 uM purified P-domain, 25 C; relative dimer peak area against total protein fitted; dimer to monomers
[7] = target: the molecule itself; experiment: NMR titration; 1H,15N TROSY HSQC spectra of [U-2H,15N] labeled P-domain at 24-200 uM protein; intensities of unassigned dimer cross-peaks; 298 K, 20 mM sodium acetate, 100 mM NaCl, pH* 5.3; dimer to monomers
[8] = target: the molecule itself; experiment: SEC; analytical Superdex 75 Increase 3.2/300, 20 mM sodium acetate, 100 mM NaCl, pH 5.3, 278 K; 250 nM-270 uM protein; apparent molecular weight against feed concentration fitted, apparent KD; lower limit from the 10x dilution; dimer to monomers
[9] = target: the molecule itself; experiment: NMR titration; methyl TROSY (1H,13C HMQC) spectra of MILproSVproSA labeled apo P-domain at six concentrations 12.5-226 uM; global two-dimensional lineshape analysis with TITAN (dimerization model); 298 K, 20 mM sodium acetate-d3, 100 mM NaCl, pH* 5.26 in D2O; dimer to monomers

Work on “GII.4 Saga P-domain (native, non-deamidated) (domain or fragment)” yielded a stoichiometry N [1] of 2.

With “GII.4 Saga P-domain point mutant N373Q (domain or fragment)” the dimer half-life time [2] was 127 h and the koff [2] was 1.51e-06 s⁻¹.

C[C@H](CCC(=O)NCC(=O)O)[C@H]1CC[C@H]2[C@@H]3[C@H](O)C[C@@H]4C[C@H](O)CC[C@]4(C)[C@H]3CC[C@]12C [GCDCA, glycochenodeoxycholic acid] was tested, and the Kd [3] was 10.5 ± 0.5 µM and the TM [4] was “thermostability of CW1 P-domains improves considerably with increasing GCDCA concentrations”.

B1: MNV-1 (CW1) P-domain (domain or fragment)
chain: TIYRMVDLPVIQPRLCTHARWPAPVYGLLVDPSLPSNPQWQNGRVHVDGTLLGTTPISGSWVSCFAAEAAYKFQSGTGEVATFTLIEQDGSAYVPGDRAAPLGYPDFSGQLEIEVQTETTKTGDKLKVTTFEMILGPTTNADQAPYQGRVFASVTAAASLDLVDGRVRAVPRSIYGFQDTIPEYNDGLLVPLAPPIGPFLPGEVLLRFRTYMRQIDTADAAAEAIDCALPQEFVSWFASNAFTVQSEALLLRYRNTLTGQLLFECKLYNEGYIALSYSGSGPLTFPTDGIFEVVSWVPRLYQLASVGSLATGRMLKQ
notes: Protruding (P)-domain of the major capsid protein VP1 of murine norovirus MNV-1 (CW1); construct truncated at the C-terminus compared to prior work; Monomer-dimer equilibrium in solution; Used unlabeled, [U-2H,15N] labeled or 13C-methyl (MILproSVproSA) labeled; also called MNV CW1 P-domain; MNV.CW1 P-domain; source: E. coli BL21 DE3, purified (Ni-NTA, HRV3C cleavage, Ni-NTA, SEC at pH 5.3)
With B1 the “stoichiometry N” value [5] was 2, the Kd [6] was 32 µM and the Kd [7] was roughly 31 µM. It also gave a Kd [8] of 4 to 40 µM, a Kd [9] of 6.9 µM and a koff [9] of 1.25 s⁻¹. It also gave a kon [9] of 140000 M⁻¹ s⁻¹.
